Source: patent US20120251547A1 (Amgen, published 2012)
Substitutions are numbered along the chain they refer to. Blank lines part the entries; values can stand above or below the binder they belong to.

Key:
[1] = biological target: human IL-17RA, full-length, on cells (human, UniProt Q96F46 33-866); experiment: cell-based or functional assay
huIL-17RA-FLAG-polyHis [2] = biological target: T1, huIL-17RA-FLAG-polyHis (human, UniProt Q96F46 33-320); experiment: binning; IL-17RA held by bead mAb A
T1 construct: also called IL-17RA-FLAG-pHis; wild-type IL-17RA
Method: (§1) The method employed the Bio-Plex Workstation and software (BioRad, Hercules, Calif.), as well as reagents from Luminex® Corp. (Austin, Tex.). […] The mouse-anti-human IgG coating was evaluated and the beads quantified by FACS. Each bead code was separately incubated with 10 ul of anti-IL-17RA antibody for 1 hour at room temperature and then washed. The beads were pooled and then dispensed to a 96-well filter plate (Millipore, Billerica, Mass., product #MSBVN1250). […] The PE-tagged monovalent antibody will detect the presence of the second mAb added to the well, but not the first mAb captured by the monovalent mouse-anti-human IgG antibody. Beads were resuspended in 120u1 PBSAT and at least 100 events/bead code were collected on the Bio-Plex workstation as per the manufacturer's recommended protocol.

huIL-17RA-FLAG-polyHis [3] = biological target: T1, huIL-17RA-FLAG-polyHis; experiment: binning; IL-17RA held by bead mAb B
Method: as §1

huIL-17RA-FLAG-polyHis [4] = biological target: T1, huIL-17RA-FLAG-polyHis; experiment: binning; IL-17RA held by bead mAb C
Method: as §1

huIL-17RA-FLAG-polyHis [5] = biological target: T1, huIL-17RA-FLAG-polyHis; experiment: binning; IL-17RA held by bead mAb D
Method: as §1

huIL-17RA-FLAG-polyHis [6] = biological target: T1, huIL-17RA-FLAG-polyHis; experiment: binning; IL-17RA held by bead mAb E
Method: as §1

huIL-17RA-FLAG-polyHis [7] = biological target: T1, huIL-17RA-FLAG-polyHis; experiment: binning; IL-17RA held by bead mAb F
Method: as §1

huIL-17RA-FLAG-polyHis [8] = biological target: T1, huIL-17RA-FLAG-polyHis; experiment: binning; IL-17RA held by bead mAb H
Method: as §1

huIL-17RA-FLAG-polyHis [9] = biological target: T1, huIL-17RA-FLAG-polyHis; experiment: binning; IL-17RA held by bead mAb M
Method: The method employed the Bio-Plex Workstation and software (BioRad, Hercules, Calif.), as well as reagents from Luminex® Corp. (Austin, Tex.). The manufacturers' basic protocols were followed except where noted below (see www.bio-rad.com and www.luminexcorp.com for details). […] The mouse-anti-human IgG coating was evaluated and the beads quantified by FACS. Each bead code was separately incubated with 10 ul of anti-IL-17RA antibody for 1 hour at room temperature and then washed. The beads were pooled and then dispensed to a 96-well filter plate (Millipore, Billerica, Mass., product #MSBVN1250). […] The PE-tagged monovalent antibody will detect the presence of the second mAb added to the well, but not the first mAb captured by the monovalent mouse-anti-human IgG antibody. Beads were resuspended in 120u1 PBSAT and at least 100 events/bead code were collected on the Bio-Plex workstation as per the manufacturer's recommended protocol.

huIL-17RA-FLAG-polyHis [10] = biological target: T1, huIL-17RA-FLAG-polyHis; experiment: binning; IL-17RA held by bead mAb P
Method: as §1

huIL-17RA-FLAG-polyHis [11] = biological target: T1, huIL-17RA-FLAG-polyHis; experiment: binning; IL-17RA held by bead mAb G
Method: as §1

huIL-17RA-FLAG-polyHis [12] = biological target: T1, huIL-17RA-FLAG-polyHis; experiment: binning; IL-17RA held by bead mAb I
Method: as §1

huIL-17RA-FLAG-polyHis [13] = biological target: T1, huIL-17RA-FLAG-polyHis; experiment: binning; IL-17RA held by bead mAb K
Method: as §1

huIL-17RA-FLAG-polyHis [14] = biological target: T1, huIL-17RA-FLAG-polyHis; experiment: binning; IL-17RA held by bead mAb O
Method: as §1

huIL-17RA-FLAG-polyHis [15] = biological target: T1, huIL-17RA-FLAG-polyHis; experiment: binning; IL-17RA held by bead mAb Q
Method: as §1

huIL-17RA-FLAG-polyHis [16] = biological target: T1, huIL-17RA-FLAG-polyHis; experiment: binning; IL-17RA held by bead mAb R
Method: as §1

chimera A = biological target: T2, chimera A; experiment: Bio-Plex titration on His-captured chimera;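 also: binding of anti-IL-17RA antibodies (4-fold titration across about 5 logs, 1 h) to His-captured IL-17RA chimeras on multiplexed beads, MFI read as percent of maximal wild-type human IL-17RA signal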
T2 construct: human IL-17RA extracellular domain with mouse Domain A; column head aa 38-51; also called Construct A
Method: (§2) Twelve bead codes of pentaHis-coated beads (Qiagen, Valencia, Calif.; see wwwl.qiagen.com) were used to capture histidine-tagged protein. The 12 bead codes allowed the multiplexing of 11 chimeric and the wild type human IL-17RA.
(§3) The beads were washed as per the manufacturer's protocol and the 12 bead set was pooled and aliquoted into 2 or 3 columns of a 96-well filter plate (Millipore, Billerica, Mass., product #MSBVN1250) for duplicate or triplicate assay points, respectively. 100 ul anti-IL-17RA antibodies in 4-fold dilutions were added to the wells, incubated for 1 hour at room temperature, and washed. […] Beads were resuspended in 1% BSA, shaken for 3 minutes, and read on the Bio-Plex workstation. Antibody binding to IL-17RA chimeric protein was compared to antibody binding to the human IL-17RA wild-type from the same pool. A titration of antibody over approximately a 5 log scale was performed. Median Fluorescence Intensity (MFI) of chimeric proteins was graphed as a percent of maximum wild-type human IL-17RA signal.

chimera L = biological target: T3, chimera L; experiment: Bio-Plex titration on His-captured chimera;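 also: binding of anti-IL-17RA antibodies (4-fold titration across about 5 logs, 1 h) to His-captured IL-17RA chimeras on multiplexed beads, MFI read as percent of maximal wild-type human IL-17RA signal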
T3 construct: human IL-17RA extracellular domain with mouse Domains B and F; B+F; also called Construct L
Method: as §2, §3

chimera B = biological target: T4, chimera B; experiment: Bio-Plex titration on His-captured chimera;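 also: binding of anti-IL-17RA antibodies (4-fold titration across about 5 logs, 1 h) to His-captured IL-17RA chimeras on multiplexed beads, MFI read as percent of maximal wild-type human IL-17RA signal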
T4 construct: human IL-17RA extracellular domain with mouse Domain B; column head 75-96; also called Construct B
Method: as §2, §3
T4 IL-17RA extracellular domain with FLAG-polyHis tag: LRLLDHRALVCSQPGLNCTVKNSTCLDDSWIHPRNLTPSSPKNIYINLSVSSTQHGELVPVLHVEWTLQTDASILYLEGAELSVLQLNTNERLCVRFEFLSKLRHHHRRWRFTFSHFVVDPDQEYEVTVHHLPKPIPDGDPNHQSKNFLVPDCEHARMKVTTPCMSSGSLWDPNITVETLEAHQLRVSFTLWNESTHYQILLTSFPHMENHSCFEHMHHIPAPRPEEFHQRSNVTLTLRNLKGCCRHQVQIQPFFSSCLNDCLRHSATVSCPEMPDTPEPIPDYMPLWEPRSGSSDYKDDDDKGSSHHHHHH

chimera C = biological target: T5, chimera C; experiment: Bio-Plex titration on His-captured chimera;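 also: binding of anti-IL-17RA antibodies (4-fold titration across about 5 logs, 1 h) to His-captured IL-17RA chimeras on multiplexed beads, MFI read as percent of maximal wild-type human IL-17RA signal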
T5 construct: human IL-17RA extracellular domain with mouse Domain C; also called Construct C
Method: as §2, §3

chimera E = biological target: T6, chimera E; experiment: Bio-Plex titration on His-captured chimera
T6 construct: human IL-17RA extracellular domain with mouse Domain E; also called Construct E
Method: as §2, §3

chimera G = biological target: T7, chimera G; experiment: Bio-Plex titration on His-captured chimera
T7 construct: human IL-17RA extracellular domain with mouse Domains A and E; also called Construct G
Method: as §2, §3

chimera H = biological target: T8, chimera H; experiment: Bio-Plex titration on His-captured chimera
T8 construct: human IL-17RA extracellular domain with mouse Domains B and E; also called Construct H
Method: as §2, §3
T8 IL-17RA extracellular domain with FLAG-polyHis tag: T4 IL-17RA extracellular domain with FLAG-polyHis tag with E181D, A182T, H183Q, Q184H, S188D

chimera I = biological target: T9, chimera I; experiment: Bio-Plex titration on His-captured chimera
T9 construct: human IL-17RA extracellular domain with mouse Domains C and E; also called Construct I
Method: as §2, §3

IL-17A/HFF bioassay IC50, subclone 14 [1]: 0.44 nM
IL-17A/HFF bioassay IC50, subclone 15 [1]: 0.4 nM
IL-17A/HFF bioassay IC50, subclone 16 [1]: 0.17 nM
normalized MFI (huIL-17RA-FLAG-polyHis [2]): -162
normalized MFI (huIL-17RA-FLAG-polyHis [3]): 1300
normalized MFI (huIL-17RA-FLAG-polyHis [4]): 354
normalized MFI (huIL-17RA-FLAG-polyHis [5]): 344
normalized MFI (huIL-17RA-FLAG-polyHis [6]): 260
normalized MFI (huIL-17RA-FLAG-polyHis [7]): 304
normalized MFI (huIL-17RA-FLAG-polyHis [8]): 4000
normalized MFI (huIL-17RA-FLAG-polyHis [9]): 2380
normalized MFI (huIL-17RA-FLAG-polyHis [10]): 4490
normalized MFI (huIL-17RA-FLAG-polyHis [11]): 480
normalized MFI (huIL-17RA-FLAG-polyHis [12]): 6890
normalized MFI (huIL-17RA-FLAG-polyHis [13]): 8970
normalized MFI (huIL-17RA-FLAG-polyHis [14]): 5380
normalized MFI (huIL-17RA-FLAG-polyHis [15]): 7850
normalized MFI (huIL-17RA-FLAG-polyHis [16]): 5110
EC50 (chimera A): 0.052 nM
binding result (chimera L): no binding
EC50 (chimera B): 0.063 nM
EC50 (chimera C): 0.052 nM
EC50 (chimera E): 0.067 nM
EC50 (chimera G): 0.052 nM
EC50 (chimera H): 0.088 nM
EC50 (chimera I): 0.059 nM
B1: AMH18/AML18 (antibody, IgG2, V domains shown)
VH: QVQLVQSGAEVKKPGASVKVSCKASGYSFTDYYMHWVRQAPGQGLEWMGWMHPNSGGTDLAQRFQGRVTMTRDTSISTAYMELSRLRSDDTAVYYCARGGYCSTLSCSFYWYFDLWGRGTLVTVSS
VL: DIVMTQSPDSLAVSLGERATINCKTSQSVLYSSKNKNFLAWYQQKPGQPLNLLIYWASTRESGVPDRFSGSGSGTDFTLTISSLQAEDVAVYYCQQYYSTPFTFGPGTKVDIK
notes: human mAb from IgG2 XenoMouse mice; also called AM-18; antibody G

IL-17A/HFF bioassay IC50, subclone 4 [1]: 2.3 nM
IL-17A/HFF bioassay IC50, subclone 5 [1]: 3.1 nM
IL-17A/HFF bioassay IC50, subclone 6 [1]: 3.3 nM
normalized MFI (huIL-17RA-FLAG-polyHis [2]): 9530
normalized MFI (huIL-17RA-FLAG-polyHis [3]): 1900
normalized MFI (huIL-17RA-FLAG-polyHis [4]): 4770
normalized MFI (huIL-17RA-FLAG-polyHis [5]): 1380
normalized MFI (huIL-17RA-FLAG-polyHis [6]): 1170
normalized MFI (huIL-17RA-FLAG-polyHis [7]): 2200
normalized MFI (huIL-17RA-FLAG-polyHis [8]): 10200
normalized MFI (huIL-17RA-FLAG-polyHis [9]): 44.5
normalized MFI (huIL-17RA-FLAG-polyHis [10]): 2160
normalized MFI (huIL-17RA-FLAG-polyHis [11]): 6280
normalized MFI (huIL-17RA-FLAG-polyHis [12]): 2.5
normalized MFI (huIL-17RA-FLAG-polyHis [13]): -181
normalized MFI (huIL-17RA-FLAG-polyHis [14]): 175
normalized MFI (huIL-17RA-FLAG-polyHis [15]): 100
normalized MFI (huIL-17RA-FLAG-polyHis [16]): 34
EC50 (chimera A): 0.018 nM
EC50 (chimera L): 0.025 nM
EC50 (chimera B): 0.017 nM
EC50 (chimera C): 0.03 nM
EC50 (chimera E): 0.026 nM
EC50 (chimera G): 0.025 nM
EC50 (chimera H): 0.025 nM
EC50 (chimera I): 0.032 nM
B2: AMH21/AML21 (antibody, IgG2, V domains shown)
VH: EVQLVESGGGSVQPGGSLRLSCAASGFTFSSYSMNWVRQAPGKGLEWVSIISSRSSIIHYADSVKGRFTISRDNAKNSLYLQMNSLRDEDTAVYYCARPKVGGGMDVWGQGTTVTVSS
VL: DIQMTQSPSSLSASVGDRVTITCRASQGISNYLAWYQQKPGKFPELLIYAASTLQSGVPSRFSGSGSGTDFTLTISSLQPEDVATYYCQKYNRAPFTFGPGTKVDIK
notes: human mAb from IgG2 XenoMouse mice; also called AM-21; antibody Q

IL-17A/HFF bioassay IC50, subclone 7 [1]: 8.1 nM
IL-17A/HFF bioassay IC50, subclone 8 [1]: 6.6 nM
IL-17A/HFF bioassay IC50, subclone 9 [1]: 6.7 nM
normalized MFI (huIL-17RA-FLAG-polyHis [2]): 6800
normalized MFI (huIL-17RA-FLAG-polyHis [3]): 1060
normalized MFI (huIL-17RA-FLAG-polyHis [4]): 2990
normalized MFI (huIL-17RA-FLAG-polyHis [5]): 783
normalized MFI (huIL-17RA-FLAG-polyHis [6]): 666
normalized MFI (huIL-17RA-FLAG-polyHis [7]): 1240
normalized MFI (huIL-17RA-FLAG-polyHis [8]): 8300
normalized MFI (huIL-17RA-FLAG-polyHis [9]): 24
normalized MFI (huIL-17RA-FLAG-polyHis [10]): 1410
normalized MFI (huIL-17RA-FLAG-polyHis [11]): 4020
normalized MFI (huIL-17RA-FLAG-polyHis [12]): 58
normalized MFI (huIL-17RA-FLAG-polyHis [13]): -29
normalized MFI (huIL-17RA-FLAG-polyHis [14]): 140
normalized MFI (huIL-17RA-FLAG-polyHis [15]): 60
normalized MFI (huIL-17RA-FLAG-polyHis [16]): 25
EC50 (chimera A): 0.023 nM
EC50 (chimera L): 0.027 nM
EC50 (chimera B): 0.02 nM
EC50 (chimera C): 0.04 nM
EC50 (chimera E): 0.027 nM
EC50 (chimera G): 0.027 nM
EC50 (chimera H): 0.033 nM
EC50 (chimera I): 0.042 nM
B3: AMH20/AML20 (antibody, IgG2, V domains shown)
VH: B2 VH with S11L, I50F, S53A, I57T, H59Y
VL: B2 VL
notes: human mAb from IgG2 XenoMouse mice; also called AM-20; antibody R
